Assay results as given in the nanobody polyreactivity screen of Harvey et al. (2022).

Assay: yeast display, Sf9 membrane polyspecificity reagent, FACS + sequencing; frameworks hold sequencing errors
Method in brief: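 A nanobody's polyreactivity label depends on the gate it was sorted from. Yeast display cells were stained with 10% biotinylated, detergent-solubilized Sf9 membrane reagent for 1 hour at 4 °C, enriched on streptavidin microbeads and sorted by FACS. The low and high (top ~1%) gates were set on anti-HA fluorescence for expression and streptavidin fluorescence for reagent binding.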

Row | Sequence | polyreactivity (PSR sort gate)
1 | QVQLVESGGGLVQAGGSLRLSCAASGRTFQPNVMGLFRQEPGKESELVAAISWSGASTYYADSVKGRFTISRDNAKNTVYLQMNSLKPEDTSVYYCAAEFPFPPACDYWGQGTQVTVSS | low polyreactivity
2 | QVQLVESGGGLVQAGGSLRLSCAASGFTFGPYAMGWYRQAPGKERELVAGITWSGASTYYADSVKGRFTISRDNAKNSVYLQMNSLKPEDTAVYYCARYYRLGSRYDYWGQGTQVTVSS | low polyreactivity
3 | QVQLVESGGGLFQAGVSLTLSFAASGSIFDINAMGWYRQEPWKETDLVAAIRSGDRTHYADSVKGRFTISRDNAMNTVYLQMNSLIPEDTAVYYCAADRFIYLNRELDYWGQGTQVTVSS | low polyreactivity
4 | QVQLVESGGGIVQAGGSLRLSCAASGLTFYGYTMGWYRQAPGKERELVAAISWSGGNTYYADSVKGRFTISRDNAKNTVYLQMNSLKPDDTAVYYCAAVYVYLGVYARYPIWGYYYWGQGTQVTVSS | low polyreactivity
5 | QVQLVESGGGLVQAGGSLRLSCAASGRTFGVYMGWYRQAPGKERELVAVISSGDSTNYADSVKGRFTISRDNAKNTVYLQMNSLKPEDTAVYYCNAYGSDRLTLDDYWGQGTQVTVSS | low polyreactivity
6 | QVQLVESGGGLVQAGGSLSLSCAASGRTLYVYTMGWYRQAPGKERELVASISSGVGTNYADSVKGRFTISRDNAKNTDYLQMNSLKPEDTAVYYCAARFRYYRHYYWGQGTQVTVSS | high polyreactivity
7 | QVQLVESGGGLVQAGGSLRLSCAASGFIFVGNDMGWYRQAPGKERELVAAISSGGTTIYADSVKGRFTISRDNAKNTVYLQMNSLKPEDTAVYFCAADYDYRQGYDSVHLDYWGQGTQVTVSS | low polyreactivity
8 | QVQLVESGGGLVQAGGSLRLSCAASGFIVSTKVMGWYRQAPGKERELVADINTGGSTSYADSVKGRFTNSRDNAKNTVYLQMNSLKPEDTAVYSCAAVLQYYYLSTDDPYDYWGQGTQVTVSS | low polyreactivity
9 | QVQLVESGGGLVQAGGSLRLSSASSGRTFYKYAMGWYRQAPGKERELVAAISRRGGSTYYADSVKGRFTISRDNAKNTVYLQMNSLKPEDSAVYYCAAGGSVAFYYWGQGTQVTVSS | high polyreactivity
10 | QVQLVESGGGLVQAGGSLRLSCAASGITFAPYAMGWYRQAPGKEREFVAGISWSGTTTYYADSVKGRFTISRDNAKNTVYLQMNSLKPEDTAVYYCATDYFNYGYFDFRWYYYWGQGTQVTVSS | high polyreactivity
11 | QVQLVESGGGLVQAGGSLRLSCAASGRIFYRYAMGWYRQAPGKERELVAGITRGGSTYYADSVKGRFTISRDNAKNTVYLQMNSLKPEDTAVYYCNVRWSPAGTGLLDFWGQGSQVTVSS | high polyreactivity
12 | QVQLVESGGGFVQAGCSLRLSCAASGSIFLYNAMGWYRQAPGNDRELVATISYIGGRTYYADSVKGRFSISRDKAKNTVYSQMNSLKPEDTAVYYCAAEYYVISSPSFYEYDYWGQGTQVTVSS | low polyreactivity
13 | QVQLVESGGGLVQAGGSLRISCAASGFTFSYNAMGWYRQAPGKERELVAGINVSSGGDTYADSVKGRFTISRDNAKNTVYLQMNSLKPEDTAVYYCAKDHYGDDTYGTPYDYDYWGQGTQVTVSS | low polyreactivity
14 | QVQLVESGGGLVQAGGSLRKTCAASVRIFHYYAMGWYRQAPGKERELVAAINKSGGRTYYADSVKGRFTISRDNAKNTFYLQMNSLKPEDTAVYYCAAQDGYLGQGTQVTVSS | high polyreactivity
15 | QVQLVESGGGLVQAGGSLRLSCAASGSPFRHYALGWYRQAPGKERELVAVISWGGTSTYYADSGKGRFTISRDNAKNTVYLQMNSLKPEDSAVYYCNADSNWYYQWNYYGLYDYWGQGTQVTVSS | low polyreactivity
16 | QVQLVESGGGLVQAGGSLRLSCAASGLTFDPYAMGWYRQAPGKEREFVATITTSGDSTYYADSVKGRFTISRDNAKNTVYLQMNSLKPEDTAVYYCNTQSRTLGWPLDYWGQGTQVTVSS | high polyreactivity
17 | QVQLVESGGGLVQAGGSLRLSCAASGFIFWDYAMGWYRQAPGKERELVAAISDSGGDTYYADSVKGRFTISRDNAKNTVYFQMNSLKPEDTAVYYCAADVELWVFRGQQYDYWGQGTQVTVSS | low polyreactivity
18 | QVQLVESGGGLDQAGGSLRLSCAASGSTFRYSVMGWSRQAPGKERELVAGISYRGGTTYYADSVKGRFTISRDNAKNTVYLQMNSLKPEDTAVYYCAADSTPYVLSGNYDYWGQGTQVTVSS | low polyreactivity
19 | QVQLVESGGGLVQAGGSLRLSCAASGSTISYYAMGWYRQAPGKERELVAAITWNGGSTYYADSVKGRFTISRDNAKNTVYLQMNSLKPEDTAVYYCAKDSYYYDYDYWGQGTQVTVSS | low polyreactivity
20 | QVQLVKSGGGLVQAGGSLRVSCAATGRIYTDNAMGWYRQATGKERELVAGMSSSGGRTYYADSVKGRFTISRDNAKNSVFFQMNSLLTEATAVYYCAAANSRRDGRYYWGQGTQVSVSS | high polyreactivity
21 | QVQLVESGGGLVQAGGSLRLSCAASGFTFWGYGMGWYRQAPGKERELVAAISGSGGSTYYADSVKGRFTISRDNAKNTVYLQMNSLKPEDTAVYYCNKATQFYQWGASPYYPRRDYWGQGTQVTVSS | low polyreactivity
22 | QVQLVESGGGLVQAGGSLRLSCSASGRIFRYNGKGWYRQAHGKERELVAVITHRSGTTSYADSVKGRFTISRDNAKNTVYLQMNSLKPEDTAVYYCARGYYKPSVGKSKRVGGNYLGQGTQVTVSS | high polyreactivity

Row | Sequence | polyreactivity (PSR sort gate)
23 | QVQLVESGGGLVQAGGSLRLSCAASGRTFYRYVMGWYRQAPGKERELVAAISKSDGSTYYADSVKGRFTISRDNAKNSVYLQMNSLKPEDTAVYYCNARLSWSAFGYWGQGTQVTVSS | high polyreactivity
24 | QVQLVESGGGLVQAGGSLRLSCAASGIISSVYAMGWYRQAPVKERELVAAISGSGGSTYYADSVKGRFTISRDNAKNTVYLQMNSLTPEDTAVYYCAKGYQYQGNSYGYWGQGTQVTVSS | low polyreactivity
25 | QVQLVESGGGLVQAGGSLRLSCAASGSTFYIYGMGWYRQAPGKERELVAAISSSGGRTNYADSVKGRFTISRDNAKNTVYLQMNSLKPEDTAVYYCAARRWQGYAGWYDYWGQGTQVTVSS | high polyreactivity
26 | QVQLVESGGGLVQAGGSLRLSCAASGLIFGYYAMGWYRQAPGKEREFVAAISGTGGSTYYADSVKGRFTISRDNAKNTVYLQMNSLKPEDTAVYYCAARQGWWRFYAYDYWGQCTQVTVSS | high polyreactivity
27 | QVQLVESGGGLVQAGGSLRLSCAASGRISKGYAMGWYRPAPGKERELVAAISWRTSSTYYADSVKGRFTISRDNAKNTVYLQMNSLKPEANAVYYCAAETWLGSWRQVGMDYWGQGTQVTVSS | high polyreactivity
28 | QVQLGESGGVLVQEGGSLRLSSAASGSILSKYAIGWYRQAPGKERELVAVITSNSGRKYYADYLKGRFTISRDNAKNTVYLQMNSLKPEDTAVYYCAAQRRSSQNYYWGQGTQVTVSS | high polyreactivity
29 | QVQRVESGGGLVQAGGSLRLSCAASGRIFSIYGMGWYRQAPGKERELVAVISGSVGITYYADSVKGRFTISRDNAKNTVYLQINSLKPEDTAVFYCNAKVRRRKYDYWGQGTQVTVSS | high polyreactivity
30 | QVQLVESGGGLVQAGGSLRLSCAASGSTFGSYAMGWYRQAPGKERELVASISSRGGSTYYADSVKGRFTISRDNAKNTVYLQMNSLKPEDTAVYYCPATRYSAYSRGKYNFWGQGTQVTVSS | high polyreactivity
31 | QVQLVESGGGLVQAGGSLRLSCAASGFTFYKYAMGWYRQAPGKERELVAGISSRGTRTYYADSVKGRFTISRDNAKNTVYLQMNSLKPEDTAVYDCAADSNTVNYDYWGQGTQVTVSS | high polyreactivity
32 | QVQLVESVVGLVQAGGSLRLSCAASGRIFIIYAMGWYIQAPGKEREFVAAITSSGGSTYYGDSVKGRFTISRDNAKNTVYLQMNSLKPEDSAVYYCAARVTKLRTSSLRGYWGQGTQVTVSS | high polyreactivity
33 | QVQLVESGGGLVQAGGSLRLSCAASGITLTYYAMGWYRQAPGKERELVAAITWNGGHTYYADSVKGRFTISRDNAKNTVYLQMISQKPEDTAVYYCAAELWAYTWYWHSDYWGQGTQVTVSS | low polyreactivity
34 | QVQLVESVGGLVQAGGSLRLSCAASGNIFSSYAMGWYRQAPGKERELVARITTSAGRTYDADSVKGRFTISRDNAKNTVDLQMNSLKPEDTPVYYCAVDWYGSYGYGGSQNSDYWGQGTQVTVSS | high polyreactivity
35 | QAQLVETGGGLVQAGGSRRLSCAASGRTYKGYVMGWYRQAPGKEREFVAVITRDGGSTYYAVSVKGRFTISRDNAKNTVYLEMKSLKPEDTEVYYCASTYYPVAGEYDYWGQGTKVTVSS | low polyreactivity
36 | QVQLVESGGGLVQAGGSLRLTCAASGFIVKYNAMGWYRQAPGKERELVAAITSTGSTNYADSVKGRFTISRDNAKNTVYFQMISLKPEDNAVYYCAAYWRSRNRFNWGQGTQVTVTS | high polyreactivity
37 | QVQLVESGGGLVQAGGSLRLSCAASGSNFHGNSLGRYRQGTGKERELVAAISQSGDSTYYADSVKGRFTISRDNAKNTVYLQMNSLKPEDTAVYYCAARSGYRGYYHFYYWGQGTQVTVSS | high polyreactivity
38 | QVQLVESGGGLVQTGGTLRLSCAASGRSFNRNARAWYRLAPGKERELVAAISSRVGRTYYADSVKGRFTISRDNAKNSVYLKMNSLKQEETAVYYCNAVYSQSCYFYRFDYWGQGTQVNVSS | high polyreactivity
39 | QVQLVESGGGLVQAGGSHRLSCAASGRTFRYNAMGWYRQAPGKERELVAAISGRGSSTYYADSVKGRFTISRDNAMNTVYLQMNSLKPEETAVYYCAALPASVRRPGWHDYWGQGTQVTVSS | high polyreactivity
40 | QVQLVESGGGLVQAGGSLRLSCAASGSTFVINAMGWYRQAPGKERELVADIDYRGGSTNYADSVKGRFTISRDNAKNTVYLPMNSLKPEDTAVYYCNKRYVIRRRGYDYWGQGTQVTVSS | low polyreactivity
41 | QVQLVESGGCLVQAGGSLRLSCAASGFTFHDYAMGWYRQAPGKERELVAAITKSGGRTYYADSVKGRFTISRDNAQNTVYLQMNSLKPVDTAVYYRAAKSYWGQVTQVTVSS | high polyreactivity
42 | QVQLVESVGGLVQAGGSLRLSCAASGSIFYWSAMGWYRQAPGKERELVAAISSGGSTNYADSVKGRFTISRDNAKNTVYLQMNSLKPEDTAVYYCAAGWDASYGYDYWGQGTQVTVSS | low polyreactivity
43 | QFQLVESGGGLVQAGGSLRLSCAASGRIFVPNGMGWYRQAPGKERELVAVIDWSGGSTYYADSVKGRFTISRDNAKNTVYLQMNRLKPEDTAVYYCNAYPYDESDYWGQGTQVTVSS | low polyreactivity
